Here are results for five molecules from patent US20150056222A1 (Regeneron, published 2015).

For assay [1], the target named is T1, hPRLR.mmh (soluble monomeric human PRLR) (human).
T1 construct: soluble monomeric construct
T1 chain: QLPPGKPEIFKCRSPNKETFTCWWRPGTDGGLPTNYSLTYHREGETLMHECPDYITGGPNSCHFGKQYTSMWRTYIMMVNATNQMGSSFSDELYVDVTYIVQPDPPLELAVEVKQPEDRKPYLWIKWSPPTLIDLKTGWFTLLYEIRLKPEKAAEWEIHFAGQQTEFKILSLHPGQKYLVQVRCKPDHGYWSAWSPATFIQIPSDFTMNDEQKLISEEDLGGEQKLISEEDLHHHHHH
Put plainly: SPR, 37C, mAb capture. Here is the method: (§1) Measurements were conducted on a T200 Biacore instrument. Kinetic association (kₐ) and dissociation (kd) rate constants were determined by processing and fitting the data to a 1:1 binding model using Scrubber 2.0 curve fitting software. Binding dissociation equilibrium constants (KD) and dissociative half-lives (t_{1/2}) were calculated from the kinetic rate constants as: KD (M)=kd/kₐ; and […].
(SPR reads the build-up and loss of mass on a sensor chip optically.)

Assay [2] deals with T2, hPRLR.mFc (soluble dimeric human PRLR) (human).
T2 construct: dimeric construct
T2 chain: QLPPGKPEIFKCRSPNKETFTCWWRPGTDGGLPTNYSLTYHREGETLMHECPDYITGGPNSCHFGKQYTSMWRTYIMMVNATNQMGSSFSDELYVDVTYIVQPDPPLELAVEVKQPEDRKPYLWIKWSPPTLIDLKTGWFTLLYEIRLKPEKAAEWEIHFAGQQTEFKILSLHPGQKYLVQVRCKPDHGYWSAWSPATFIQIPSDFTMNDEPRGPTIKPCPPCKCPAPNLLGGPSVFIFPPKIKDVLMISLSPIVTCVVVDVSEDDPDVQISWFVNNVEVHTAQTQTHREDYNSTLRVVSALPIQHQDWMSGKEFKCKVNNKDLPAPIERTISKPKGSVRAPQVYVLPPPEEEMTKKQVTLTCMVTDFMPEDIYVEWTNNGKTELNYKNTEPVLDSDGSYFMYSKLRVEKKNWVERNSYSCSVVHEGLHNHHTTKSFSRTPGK
Kind of assay: SPR, 37C, mAb capture. The method, then: as §1

In assay [3] the target is T3, mfPRLR.mmh (soluble monomeric macaca fascicularis PRLR) (macaca fascicularis).
T3 construct: soluble monomeric construct; also called macaca fascicularis (mf) PRLR.mmh
T3 chain: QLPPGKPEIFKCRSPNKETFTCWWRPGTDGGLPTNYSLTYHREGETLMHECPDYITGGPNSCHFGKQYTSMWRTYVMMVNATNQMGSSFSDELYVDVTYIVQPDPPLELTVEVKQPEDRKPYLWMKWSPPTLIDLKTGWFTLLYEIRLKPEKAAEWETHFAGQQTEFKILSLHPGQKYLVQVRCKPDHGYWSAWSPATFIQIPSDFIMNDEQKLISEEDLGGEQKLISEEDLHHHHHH
Kind of assay: SPR, 37C, mAb capture. The method, then:
as §1

Assay [4] concerns the target T4, mouse PRLR on HEK293 cells (mouse, UniProt Q08501 20-608).
T4 construct: whole, on cells; also called mPRLR; HEK293/mPRLR
T4 sequence (looked up): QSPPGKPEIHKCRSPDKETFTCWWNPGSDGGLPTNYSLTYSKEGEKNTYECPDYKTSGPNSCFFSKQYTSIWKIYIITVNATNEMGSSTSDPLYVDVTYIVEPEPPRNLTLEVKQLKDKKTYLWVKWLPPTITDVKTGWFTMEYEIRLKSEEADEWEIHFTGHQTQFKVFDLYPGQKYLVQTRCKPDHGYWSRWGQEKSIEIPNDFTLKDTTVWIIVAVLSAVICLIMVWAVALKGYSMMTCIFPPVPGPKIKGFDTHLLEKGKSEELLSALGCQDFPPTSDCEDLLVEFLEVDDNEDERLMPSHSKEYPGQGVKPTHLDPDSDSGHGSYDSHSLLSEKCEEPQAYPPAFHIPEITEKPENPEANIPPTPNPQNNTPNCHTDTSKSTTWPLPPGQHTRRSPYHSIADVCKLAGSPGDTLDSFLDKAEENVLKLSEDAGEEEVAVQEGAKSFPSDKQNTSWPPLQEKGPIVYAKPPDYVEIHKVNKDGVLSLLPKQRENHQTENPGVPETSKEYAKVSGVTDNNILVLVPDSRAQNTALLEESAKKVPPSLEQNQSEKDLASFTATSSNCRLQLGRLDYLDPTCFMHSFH
Put plainly: FACS, HEK293/mPRLR cells. Further: test concentration or dose not given here. For orientation: A flow cytometer gives signals particle by particle.

Assay [5] deals with T5, human prolactin receptor (PRLR) on cells (human, UniProt P16471 25-622).
T5 sequence: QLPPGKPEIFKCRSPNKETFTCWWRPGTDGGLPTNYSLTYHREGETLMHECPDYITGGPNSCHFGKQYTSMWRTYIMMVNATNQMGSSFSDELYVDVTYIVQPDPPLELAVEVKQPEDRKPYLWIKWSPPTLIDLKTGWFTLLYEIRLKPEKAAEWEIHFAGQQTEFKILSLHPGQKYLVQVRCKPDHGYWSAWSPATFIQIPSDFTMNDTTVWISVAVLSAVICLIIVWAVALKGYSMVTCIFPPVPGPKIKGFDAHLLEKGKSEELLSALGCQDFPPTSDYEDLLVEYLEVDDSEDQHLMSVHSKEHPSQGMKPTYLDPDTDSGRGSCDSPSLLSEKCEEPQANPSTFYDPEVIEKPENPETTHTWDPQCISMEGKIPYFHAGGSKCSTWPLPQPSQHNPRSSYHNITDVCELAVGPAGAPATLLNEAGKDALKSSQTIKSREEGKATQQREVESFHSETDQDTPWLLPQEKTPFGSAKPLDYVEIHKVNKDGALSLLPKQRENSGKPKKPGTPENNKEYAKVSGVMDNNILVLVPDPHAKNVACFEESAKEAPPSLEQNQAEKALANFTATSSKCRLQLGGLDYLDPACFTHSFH
Put plainly: cell-based or functional assay.

Assay [6] has as its target T5, human prolactin receptor (PRLR) on cells. Put plainly: FACS, T47D cells (native PRLR). Further: test concentration or dose not given here.
Assay [7] addresses T6, monkey (macaca fascicularis) PRLR on HEK293 cells (macaca fascicularis, UniProt A0A2K5WXK1 25-619).
T6 construct: also called mfPRLR; HEK293/mfPRLR
T6 sequence: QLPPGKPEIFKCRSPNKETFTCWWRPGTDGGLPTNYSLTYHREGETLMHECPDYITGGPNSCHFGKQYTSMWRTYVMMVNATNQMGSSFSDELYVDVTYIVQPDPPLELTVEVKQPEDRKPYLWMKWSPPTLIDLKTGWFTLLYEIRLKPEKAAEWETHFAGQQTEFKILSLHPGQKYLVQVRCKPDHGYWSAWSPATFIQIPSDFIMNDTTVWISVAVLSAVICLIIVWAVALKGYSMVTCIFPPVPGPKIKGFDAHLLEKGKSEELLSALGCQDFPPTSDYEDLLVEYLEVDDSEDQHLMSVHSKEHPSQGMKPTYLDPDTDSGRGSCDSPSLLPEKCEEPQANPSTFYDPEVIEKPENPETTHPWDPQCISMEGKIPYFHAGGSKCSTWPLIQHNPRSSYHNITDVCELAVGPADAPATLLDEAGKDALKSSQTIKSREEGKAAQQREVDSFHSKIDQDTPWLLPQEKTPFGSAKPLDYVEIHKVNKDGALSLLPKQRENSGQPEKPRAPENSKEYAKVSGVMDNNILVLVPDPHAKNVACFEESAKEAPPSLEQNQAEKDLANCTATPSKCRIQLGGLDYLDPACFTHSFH
Kind of assay: FACS, HEK293/mfPRLR cells. Further: test concentration or dose not given here.

For assay [8], the target named is T5, human prolactin receptor (PRLR) on cells. Kind of assay: FACS, HEK293/hPRLR cells. Further: test concentration or dose not given here.

B1: H1H6793P (antibody, human IgG1, V domains shown)
VH: EVQLVESGGGLVQPGGSLRLSCAASGFSFSIYAMSWFRQAPGKGLEWVSAINGRGDGTHYADSVKGRFTISRDNSKTTLYLQMSSLRAEDTAVYYCAKPVMSTNGFDIWGQGTMVTVSS
VL: DIQMTQSPSTLSASVGDRVTITCRASQSISSWLAWYQLKPGKAPKLLIYKASNLESGVPSRFSGSGSGTEFTLTISSLQPDDFATYYCQQYNIYWTFGQGTKVEIK
notes: human IgG1 Fc (H1H)
For B1, the T½ in assay [1] was 11 min; in assay [2] it was 81 min; in assay [3], 11 min. For the same molecule, the “FACS Cell Binding (Fold Above Background)” value came to 2 fold above background in assay [4], 43 fold above background in assay [6], 32 fold above background in assay [7] and 2 fold above background in assay [8]. In addition, the “% Internalization relative to Control I (alexa488 intensity in intracellular vesicles at 37 C, T47D cells)” value (from here on “% Internalization relative to Control I”) in assay [5] came out at 180%.

B2: H1H6976N (antibody, human IgG1, V domains shown)
VH: EVQLLESGGGFVQPGGSLRLSCAASGFTFSSYAMSWVRQAPGKGLEWVSIISSNGRYTYYADSVKGRFTISRDNSKNTLYLQMNSLRAEDTAVYYCATVTGDWFDPWGQGTLVTVSS
VL: DIQLTQSPSFLSASVGDRVTITCWASQDIDISLAWYQQKPGKAPKLLIYAASTLQSGVPSKFSGSGSGTDFTLTISSLQPEDFSTYYCQQLNSYPITFGQGTRLDIK
notes: also called H2M6976N
As to B2, the T½ was 3.7 min in assay [1], 82.6 min in assay [2] and 3.7 min in assay [3]. Besides, the “FACS Cell Binding (Fold Above Background)” value in assay [4] turned out to be 1 fold above background; in assay [6], 37 fold above background; in assay [7], 29 fold above background; in assay [8], 8 fold above background. Besides, the “% Internalization relative to Control I” value in assay [5] came to 170%.

B3: H1H6782P (antibody, human IgG1, V domains shown)
VH: EVQLVESGGGLVQPGRSLRLSCAASGFTFDDYAMHWVRQAPGKGLEWVSGIIWNSGHIGYGDSVKGRFTISRDNAKKSLYLQMNSLRAEDTALYYCARDSGRYQSYFDYWGQGTLVTVSS
VL: DIQMTQSPSTLSASVGDRVTITCRASHIISSWLAWYQQKPGKAPKVLIFKASSLESGVPSRFSGSGSGTEFTLTISSLQPDDFATYYCQQYNTYSRTFGQGTKVEIK
notes: human IgG1 Fc (H1H)
Consider B3, for which the T½ amounted to 16 min in assay [1], 89 min in assay [2] and 15 min in assay [3]. Further, the “FACS Cell Binding (Fold Above Background)” value in assay [4] stood at 4 fold above background; in assay [6], 43 fold above background; in assay [7], 32 fold above background; in assay [8], 41 fold above background. For the same molecule, the “% Internalization relative to Control I” value in assay [5] worked out at 179%.

B4: H1H6785P (antibody, human IgG1, V domains shown)
VH: EVQLVESGGGLVQPGGSLRLSCAASGFTFSSYEMNWVRQAPGKGLEWISYISSRGGTIYYADSIKGRFTIYRDNARNSLYLQMNSLRAEDTAIYYCARLSGVDIFDIWGQGTMVTVSS
VL: DIQMTQSPSSLSASVGDRVTITCRASQGISNYLAWYQQKPGKVPKLLIYFASTLQSGVPSRFSGGGSGTDFTLTISSLQPEDVATYYCQRYNSAPLTFGGGTKVEIK
notes: human IgG1 Fc (H1H)
As for B4, the results for the T½ in assay [1], in assay [2] and in assay [3] were 24 min, 99 min and 26 min, respectively. Moreover, the “FACS Cell Binding (Fold Above Background)” value in assay [4] amounted to 2 fold above background; in assay [6], 40 fold above background; in assay [7], 26 fold above background; in assay [8], 37 fold above background. Moreover, the “% Internalization relative to Control I” value in assay [5] stood at 169%.

B5: H1H6765P (antibody, human IgG1, V domains shown)
VH: EVQLVESGGGVVRPGGSLRLSCVGSGFSFDDHGMNWVRQGPGKGLEWVSGFNWNGGSTNYAESVKGRFTISRDNARNSLFLQMNSLRAEDTALYYCVRGRSGWFNDAFDVWGPGTMVTVSS
VL: EIVLTQSPGTLSLSPGERATLSCRASQTINSNYLAWYRQKPGQTPRLLIYGTSSRATGIPDRFSGSGSGTDFSLTISRLEPEDFAVFYCQQYAGLPTFGPGTKVDIK
notes: human IgG1 Fc (H1H)
As to B5, the values for the T½ in assay [1], in assay [2] and in assay [3] were 32 min, 112 min and 215 min, respectively. Moreover, the “FACS Cell Binding (Fold Above Background)” value in assay [4] was determined as 1 fold above background; in assay [6] it was 40 fold above background; in assay [7], 27 fold above background; in assay [8], 38 fold above background. Moreover, in assay [5], the “% Internalization relative to Control I” value is 186%.
